Data taken from publication PMC11432317.

Molecular target: receptor binding domain (RBD) of the SARS-CoV-2 spike protein (residues 319-541) (SARS-CoV-2) (UniProt P0DTC2)
Assay: SPR

With “wild-type sACE2-Fc (soluble ACE2, residues 1-615, fused to human IgG Fc) (from UniProt Q9BYF1 18-615) (Fc fusion)” as the substance, how does the Kd read?
Its Kd is 23.2 nM.
